From publication PMC5508476 (Translational Oncology, 2017)

Molecular target: FOLR1-His (Homo sapiens, UniProt P15328)
Assay: SPR

Sequence of FOLR1-His (P15328 25-233): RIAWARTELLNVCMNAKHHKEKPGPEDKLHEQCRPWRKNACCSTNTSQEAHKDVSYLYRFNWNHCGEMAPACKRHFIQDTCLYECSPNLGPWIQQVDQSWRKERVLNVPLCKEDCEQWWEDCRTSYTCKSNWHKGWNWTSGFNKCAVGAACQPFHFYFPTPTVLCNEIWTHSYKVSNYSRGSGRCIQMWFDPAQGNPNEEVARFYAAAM

B1: KM8188 (antibody, V domains shown)
VH: EVQLVESGGGVVQPGRSLRLSCSASGFTFSGYGLSWVRQAPGKGLEWVAMISSGGSYTYYADSVKGRFAISRDNAKNTLFLQMDSLRPEDTGVYFCARHGDDPAWFAYWGQGTPVTVSS
VL: DIQLTQSPSSLSASVGDRVTITCSVSSSISSNNLHWYQQKPGKAPKPWIYGTSNLASGVPSRFSGSGSGTDYTFTISSLQPEDIATYYCQQWSSYPYMYTFGQGTKVEIK
Kd: 31.4 nM
